Reference: patent US20230340071A1 (published 2023)

B1: Protein 6 (P6) (designed binder)
chain: PKKKIQLFAEHALYDAEMILKIVKTNSPPAEEELEDYAFNFELILEEIARLFESGDQKDEAEKAKRMKEWMKRIKTTASEDEQEEMANKIRKILEEWIRS
notes: P5 with 'Y8F' (printed; P5 has H at 8) and K33E; N-terminal 6xHis tag and thrombin site in the expression vector
B2: Protein 1 (P1) (designed binder)
chain: PKKKIQLHAEHARYDAEMILNIVKTNSPPAEEKLEDYAFNFELILEEIARLFESGDQKDEAEKAKRMKEWMKRIKTTASEDEQEEMANAIITILTSWIRS
notes: N-terminal 6xHis tag and thrombin site in the expression vector
B3: Protein 3 (P3) (designed binder)
chain: PKKKIQLYAEHARYDAEMILNIVKTNSPPAEEELEDYAFNFELILEEIARLFESGDQKDEAEKAKRMKEWMKRIKTTASEDEQEEMANAIITILTSWIRS
notes: P1 with H8Y and K33E; N-terminal 6xHis tag and thrombin site in the expression vector
B4: Protein 2 (P2) (designed binder)
chain: PKKKIQLHAEHALYDAEMILKIVKTNSPPAEEKLEDYAFNFELILEEIARLFESGDQKDEAEKAKRMKEWMKRIKTTASEDEQEEMANRIRKILEEWIRS
notes: as for B2
B5: Protein 5 (P5) (designed binder)
chain: PKKKIQLHAEHALYDAEMILKIVKTNSPPAEEKLEDYAFNFELILEEIARLFESGDQKDEAEKAKRMKEWMKRIKTTASEDEQEEMANKIRKILEEWIRS
notes: as for B2
B6: Neo-2/15 (designed binder)
chain: PKKKIQLHAEHALYDALMILNIVKTNSPPAEEKLEDYAFNFELILEEIARLFESGDQKDEAEKAKRMKEWMKRIKTTASEDEQEEMANAIITILQSWIFS
notes: Proteins were expressed in E. coli with an N-terminal 6xHis tag and thrombin site; also called Neoleukin-2/15

Tests used:
Biotinylated hIL2RG = molecular target: T1, Biotinylated hIL2RG (human, UniProt P31785 23-262, limits assumed, biotinylated (site not stated)); assay: BLI (Octet RED96), biotinylated hIL2RG on streptavidin sensors, 200 nM protein + 200 nM hIL2RB
T1 construct: also called human common gamma receptor (hIL2RG); hIL-2Rγc
T1 sequence: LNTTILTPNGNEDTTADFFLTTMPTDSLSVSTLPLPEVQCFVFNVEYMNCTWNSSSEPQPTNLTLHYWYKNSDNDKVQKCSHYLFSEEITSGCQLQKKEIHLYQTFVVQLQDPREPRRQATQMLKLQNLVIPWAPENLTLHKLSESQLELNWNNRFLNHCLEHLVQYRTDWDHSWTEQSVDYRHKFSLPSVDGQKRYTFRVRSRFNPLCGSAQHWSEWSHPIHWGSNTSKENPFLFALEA
Description: Biotinylated hIL2RG molecules were immobilized to Streptavidin sensors (SA, ForteBio) at 2 μg/mL in binding buffer (10 mM HEPES, pH 7.4, 150 mM NaCl, 3 mM EDTA, 0.05% surfactant P20, 0.5% non-fat dry milk). After baseline measurement in the binding buffer alone, the binding kinetics were monitored by dipping the biosensors in wells containing 200 nM of protein and 200 nM of hIL2RB for 300 sec. Data were collected in an Octet RED96 (ForteBio) and processed using the instrument's integrated software.

Biotinylated hIL2RB = molecular target: T2, Biotinylated hIL2RB (UniProt P14784 27-240, biotinylated (site not stated)); assay: BLI
T2 chain: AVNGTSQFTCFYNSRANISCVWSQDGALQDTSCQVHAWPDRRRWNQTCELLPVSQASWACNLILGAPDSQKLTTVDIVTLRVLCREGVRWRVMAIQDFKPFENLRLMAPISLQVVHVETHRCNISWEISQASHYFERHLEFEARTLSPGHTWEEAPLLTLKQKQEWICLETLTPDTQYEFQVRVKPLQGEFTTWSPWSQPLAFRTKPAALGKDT

[1] = molecular target: T3, human IL-2 receptor (IL-2Rβγc) on cells (human, UniProt P14784 27-551; P31785 23-369); assay: cell-based or functional assay
T3 sequence 1: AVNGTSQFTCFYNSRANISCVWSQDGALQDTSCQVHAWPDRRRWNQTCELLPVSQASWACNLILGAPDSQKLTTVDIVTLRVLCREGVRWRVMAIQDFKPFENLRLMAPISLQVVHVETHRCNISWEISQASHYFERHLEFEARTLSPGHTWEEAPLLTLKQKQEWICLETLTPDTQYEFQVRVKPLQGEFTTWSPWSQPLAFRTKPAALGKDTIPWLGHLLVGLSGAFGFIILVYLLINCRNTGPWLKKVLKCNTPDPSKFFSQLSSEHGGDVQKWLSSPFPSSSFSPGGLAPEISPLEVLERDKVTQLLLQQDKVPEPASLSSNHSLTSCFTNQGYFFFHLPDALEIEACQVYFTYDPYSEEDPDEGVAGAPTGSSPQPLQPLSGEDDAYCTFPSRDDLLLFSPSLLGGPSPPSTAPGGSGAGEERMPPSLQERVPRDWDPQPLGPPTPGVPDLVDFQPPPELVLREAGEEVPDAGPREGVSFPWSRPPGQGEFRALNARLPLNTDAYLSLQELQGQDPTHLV
T3 sequence 2: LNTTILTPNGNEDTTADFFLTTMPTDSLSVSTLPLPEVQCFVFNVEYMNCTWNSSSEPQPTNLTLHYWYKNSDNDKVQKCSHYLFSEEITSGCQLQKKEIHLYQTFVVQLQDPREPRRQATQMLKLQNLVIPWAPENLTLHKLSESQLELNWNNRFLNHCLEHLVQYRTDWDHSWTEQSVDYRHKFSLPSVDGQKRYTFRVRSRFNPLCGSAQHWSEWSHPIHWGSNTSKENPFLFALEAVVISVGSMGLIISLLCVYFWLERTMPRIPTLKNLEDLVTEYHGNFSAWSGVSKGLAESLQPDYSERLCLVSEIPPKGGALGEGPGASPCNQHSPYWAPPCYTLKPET

[2] = molecular target: T4, hIL-2RBG (biotinylated hIL2RG on the sensor with hIL2RB in solution) (UniProt P14784 27-240; P31785 23-262, biotinylated (site not stated)); assay: BLI competition, inhibition of hIL-2 binding
T4 chain 1: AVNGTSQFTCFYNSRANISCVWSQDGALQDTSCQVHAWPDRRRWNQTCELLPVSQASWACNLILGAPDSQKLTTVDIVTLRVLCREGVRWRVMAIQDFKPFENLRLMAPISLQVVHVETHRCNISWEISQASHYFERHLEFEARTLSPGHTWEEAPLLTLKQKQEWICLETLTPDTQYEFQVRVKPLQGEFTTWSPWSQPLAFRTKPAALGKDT
T4 chain 2: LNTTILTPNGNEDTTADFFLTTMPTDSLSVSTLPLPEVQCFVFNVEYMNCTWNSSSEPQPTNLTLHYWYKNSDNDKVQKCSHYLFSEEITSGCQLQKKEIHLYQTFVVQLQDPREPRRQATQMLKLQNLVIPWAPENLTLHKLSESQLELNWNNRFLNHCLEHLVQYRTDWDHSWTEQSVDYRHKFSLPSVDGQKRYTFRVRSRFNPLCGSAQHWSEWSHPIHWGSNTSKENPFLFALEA

hIL2RB-fc chimera [3] = molecular target: T5, hIL2RB-fc chimera (human, UniProt P14784 27-240); assay: BLI (Octet RED96e), hIL2RB-fc (AcroBiosystems) on anti-human IgG Fc sensors
T5 construct: also called hIL2 receptor beta; hIL-2Rβ; not shown: Fc part of the bought chimera (captured on anti-human IgG Fc biosensors)
T5 sequence: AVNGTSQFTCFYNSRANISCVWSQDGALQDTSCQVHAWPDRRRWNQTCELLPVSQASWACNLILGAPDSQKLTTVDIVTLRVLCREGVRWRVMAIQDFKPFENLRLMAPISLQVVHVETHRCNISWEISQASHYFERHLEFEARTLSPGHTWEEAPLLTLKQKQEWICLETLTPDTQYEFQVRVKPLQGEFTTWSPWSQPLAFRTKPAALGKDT
Description: (§1) For this purpose, sensors were soaked in samples containing 20 nM of hIL2RB-fc chimera (AcroBiosystems) for 300 sec. […] Finally, sensors were removed from the protein samples and dipped in buffer solutions to promote and measure dissociation (1500 sec). The buffer used to prepare all the samples and soak the sensors was HBS-EP+from GE Healthcare, which contains 10 mM HEPES, 150 mM NaCl, 3 mM EDTA and 0.05% v/v surfactant P20, pH 7.4. Data were acquired at 30° C. using an Octet RED96e system (ForteBio) and processed using the instrument's integrated software. Kinetics were fitted to a 1:1 binding model after subtracting a buffer signal baseline and the Kd values were calculated.

[4] = molecular target: T3, human IL-2 receptor (IL-2Rβγc) on cells; assay: cell-based or functional assay; remark: listed apart in the source
hIL2RG-fc chimera [5] = molecular target: T6, hIL2RG-fc chimera (human, UniProt P31785 23-262); assay: BLI (Octet RED96e), hIL2RG-fc (AcroBiosystems) on anti-human IgG Fc sensors
T6 construct: also called hIL2G; hIL2 receptor gamma; not shown: Fc part of the bought chimera (captured on anti-human IgG Fc biosensors)
T6 sequence: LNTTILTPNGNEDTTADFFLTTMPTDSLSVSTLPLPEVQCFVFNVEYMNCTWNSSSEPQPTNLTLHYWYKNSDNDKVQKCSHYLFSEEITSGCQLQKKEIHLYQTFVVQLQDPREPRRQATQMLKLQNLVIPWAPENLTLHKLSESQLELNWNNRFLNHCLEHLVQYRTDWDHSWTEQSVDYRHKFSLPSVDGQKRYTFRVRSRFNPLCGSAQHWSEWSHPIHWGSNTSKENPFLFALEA
Description: as §1, with “hIL2RG-fc” for “hIL2RB-fc”, “HBS-EP+ from” for “HBS-EP+from”

hIL2RB-fc chimera [6] = molecular target: T5, hIL2RB-fc chimera; assay: BLI competition: hIL2RG-fc on sensor, dilutions of P3 + 20 nM Neo-2/15 + 50 nM hIL2RB-fc; competitor Neo-2/15; read-out binding to hIL2RBG
Description: (§2) All samples were prepared using HBS-EP+buffer from GE Healthcare, which contains 10 mM HEPES, 150 mM NaCl, 3 mM EDTA and 0.05% v/v surfactant P20, pH 7.4. Data were acquired at 30° C. using an Octet RED96e system (ForteBio) and processed using the instrument's integrated software. IC50 values were estimated from response vs antagonist concentration plots.

hIL2RB-fc chimera [7] = molecular target: T5, hIL2RB-fc chimera; assay: BLI (Octet RED96e), hIL2RB-fc (Symansis) on anti-human IgG Fc sensors
Description: as §1, with “(Symansis)” for “(AcroBiosystems)”

mouse IL-2 beta receptor = molecular target: T7, mouse IL-2 beta receptor (mouse, UniProt P16297 27-240); assay: BLI competition: mIL2RG on sensor, dilutions of P3 + 20 nM Neo-2/15; competitor Neo-2/15; read-out binding to mIL2RBG
T7 construct: also called mIL2RB; beta part of mIL2RBG
T7 sequence (looked up): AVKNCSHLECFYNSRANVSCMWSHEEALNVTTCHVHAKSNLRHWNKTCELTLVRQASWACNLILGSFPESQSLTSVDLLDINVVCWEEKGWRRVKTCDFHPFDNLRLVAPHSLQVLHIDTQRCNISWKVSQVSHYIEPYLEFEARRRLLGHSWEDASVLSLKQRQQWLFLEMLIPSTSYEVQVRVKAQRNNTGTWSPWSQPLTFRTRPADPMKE
Description: as §2

hIL2RG-fc chimera [8] = molecular target: T6, hIL2RG-fc chimera; assay: BLI (Octet RED96e), hIL2RG-fc on anti-human IgG Fc sensors, 200 nM P3 + 200 nM hIL2RB-fc
Description: (§3) All samples were prepared using HBS-EP+ buffer from GE Healthcare, which contains 10 mM HEPES, 150 mM NaCl, 3 mM EDTA and 0.05% v/v surfactant P20, pH 7.4. Data were acquired at 30° C. using an Octet RED96e system (ForteBio) and processed using the instrument's integrated software.

[9] = molecular target: T3, human IL-2 receptor (IL-2Rβγc) on cells; assay: cell-based or functional assay; remark: listed apart in the source
hIL2RG-fc chimera [10] = molecular target: T6, hIL2RG-fc chimera; assay: BLI (Octet RED96e), hIL2RG-fc on anti-human IgG Fc sensors
Description: as §1, with “hIL2RG-fc” for “hIL2RB-fc”, “HBS-EP+ from” for “HBS-EP+from”

hIL2RG-fc chimera [11] = molecular target: T6, hIL2RG-fc chimera; assay: BLI (Octet RED96e), hIL2RG-fc (Symansis) on anti-human IgG Fc sensors, protein + 200 nM hIL2RB-fc
Description: as §3

| Binder | binding result (Biotinylated hIL2RG) | Kd (Biotinylated hIL2RB) | Signaling Inhibition IC50 (1 nM hIL-2, pSTAT5, CD8+ T cells) [1] | IC50 [2] | Kd (hIL2RB-fc chimera [3]) | Induced Signaling EC50 (pSTAT5, YT-1 CTLL-2 cells) [4] | Kd (hIL2RG-fc chimera [5]) | further results |
| --- | --- | --- | --- | --- | --- | --- | --- | --- |
| B1 | no binding (tested: 200 nM) | < 1 nM | 0.41 nM | 83 nM | – | – | – | Signaling Inhibition IC50 (1 nM hIL-2, pSTAT5, CD4+ T cells) [1]: 1.84 nM; Signaling Inhibition IC50 (1 nM hIL-2, pSTAT5, all T cells) [1]: 0.83 nM |
| B2 | – | – | – | – | 17 nM | 557 nM | 1190 nM | – |
| B3 | – | – | – | – | – | – | – | IC50 (hIL2RB-fc chimera [6]): 12.5 nM; Kd (hIL2RB-fc chimera [7]): 0.2 nM; IC50 (mouse IL-2 beta receptor): > 200 nM; binding result (hIL2RG-fc chimera [8]): no binding (tested: 200 nM); Binding Inhibition IC50 (inhibition of hIL-2 pSTAT5 signaling, human pan T cells, 0.1 nM hIL2) [9]: 1.4 nM; Binding Inhibition IC50 (inhibition of hIL-2 pSTAT5 signaling, human pan T cells, 1 nM hIL2) [9]: 11.7 nM; Binding Inhibition IC50 (inhibition of hIL-2 pSTAT5 signaling, human pan T cells, 10 nM hIL2) [9]: 863 nM |
| B4 | – | – | – | – | 21 nM | 426 nM | – | binding result (hIL2RG-fc chimera [10]): no binding (tested: 5000 nM (highest concentration tested)) |
| B5 | no binding (tested: 200 nM) | 12 nM | 77.7 nM | 100 nM | – | – | – | – |
| B6 | – | – | – | – | – | – | 277 nM | Kd (hIL2RG-fc chimera [11]): 277 nM |
